Test [1] has as its target complex IV (cytochrome c oxidase) (bovine (endogenous in bovine heart)). In words: native gel or EMSA; BN-PAGE of bovine heart mitochondria solubilized with digitonin. On the technique in general: A gel shift assay detects complexes by their altered migration in electrophoresis.
The target of test [2] is complex I (NADH dehydrogenase) (bovine (endogenous in bovine heart)). In words: absorption spectroscopy of the co-purified supercomplex; concentrations of b-type and c-type cytochromes (redox difference spectra) and of complex IV (reduced form) in eight supercomplex samples, room temperature, HEPES-Na pH 7.8 with sucrose.
Test [3] concerns the target complex III (cytochrome c reductase/cytochrome bc1 complex) (bovine (endogenous in bovine heart)) (UniProt P00157). In words: co-sedimentation + native gel or EMSA; crystalline complex III exchanged into amphipol, stepwise sucrose gradient 0.8-1.2 M in HEPES-Na pH 7.8, 105,000 x g, 15 h, 4 C; fractions by BN-PAGE.
Test [4] deals with complex IV (cytochrome c oxidase) (bovine (endogenous in bovine heart)). In words: absorption spectroscopy of the co-purified supercomplex; concentrations of b-type and c-type cytochromes (redox difference spectra) and of complex IV (reduced form) in eight supercomplex samples, room temperature, HEPES-Na pH 7.8 with sucrose.

This is an account of results in PMC4759192.

Regarding complex IV (cytochrome c oxidase), in test [1], the stoichiometry N came out at 2. The substance also gave a stoichiometry N (complex IV per complex I) in test [2] of 1.

On to “complex III (cytochrome c reductase/cytochrome bc1 complex) (from UniProt P00157 1-379; P00125 85-325)”, for which the stoichiometry N in test [3] is 2. This substance came in with a stoichiometry N (complex III per complex I) in test [2] of 2. In test [4], the ratio b-type cytochrome/complex IV1 (average) (b-type cytochrome per complex IV monomer) amounted to 3.88, the ratio c-type cytochrome/complex IV1 (average) (c-type cytochrome per complex IV monomer) came to 2.2 and the stoichiometry N (complex III per complex IV) came out at 2.

As usually defined, the stoichiometry N is the number of molecules, sites or subunits per partner or assembly.
